The record followed here is patent publication US10662235B2, “Cysteine engineered fibronectin type III domain binding molecules” (Janssen Biotech, Inc., priority 2016, dated 2020).

Series [1] in a line: Thermal stability by differential scanning calorimetry. The note with it: cysteine-NEM conjugates. The class given is physicochemical. As for the experimental part:
The thermal stability of cysteine-NEM conjugates was assessed by differential scanning calorimetry (DSC). The only the conjugates tested were those determined to express at high levels, conjugate efficiently, and retain EGFR binding. Additionally, cysteine variants within the BC and FG loops were excluded. Stability data was generated by heating a 400 μL aliquot of the variant from 25° C. to 100° C. at a scan rate of 1° C. per minute in a VP-DSC instrument (MicroCal). A second identical scan was completed on the sample in order to assess the reversibility of thermal folding/unfolding. Data was fitted to a 2-state unfolding model in order to calculate the melting temperature (Table 10).
Thermal Stability of c-Met-Binding FN3 Domains Differential scanning calorimetry in PBS was used to assess the stability of each FN3 domain.
(In general: DSC measures the heat that a sample takes up or gives off during a temperature scan.)

A further series deals with EGFR (Homo sapiens, UniProt P00533). In words: EGFR binding assay (ELISA) of NEM-conjugated cysteine variants relative to parent.
A short description of series [2]: Analytical size exclusion chromatography (aggregation state, percent monomer). Particulars: NEM-conjugated cysteine variants; SEC, Abs280. The class given is physicochemical. As to the method:
Size exclusion chromatography was used to determine the aggregation state of the FN3 domains binding EGFR. Aliquots (10 μL) of each purified FN3 domain were injected onto a Superdex 75 5/150 column (GE Healthcare) at a flow rate of 0.3 mL/min in a mobile phase of PBS pH 7.4. Elution from the column was monitored by absorbance at 280 nm.
The percent monomer for each protein was determined by integrating the Abs280 signal and comparing the peak in the monomer region (5.5-6 minutes) to the peaks in the oligomer region (4-5.3 minutes).

A further series has as its system MDA-MB-435 cells. In words: Cytotoxicity assay of cytotoxin conjugates in EGFR-negative MDA-MB-435 cells. The class given is cell-based, human. Particulars: EGFR-negative cell line; CellTiter Glo or IncuCyte object count at 66, 72 or 90 hour. As to the method: Cell killing was assessed by measuring viability of the EGFR-overexpressing human tumor cell line H1573 following exposure to the cysteine variant-cytotoxin conjugates. Cells were plated in black-well, clear bottomed, tissue culture-treated plates (Falcon 353219) at 7000/well in 100 μL/well of phenol red free RPMI media (Gibco 11835-030) with 5% fetal bovine serum (Gibco). Cells were allowed to attach overnight at 37° C. in a humidified 5% CO2 atmosphere. Medium was aspirated from 96-well plate and cells were treated with 50 uL of fresh media and 50 uL of 2× inhibitor made up in fresh media. Cell viability was determined by an endpoint assay with Cell TiterGlo (Promega) at 70 hours. IC50 values were determined by fitting data to the equation for a sigmoidal dose response with variable slope using GraphPad Prism 5 (GraphPad Software). Table 11 reports IC50 values obtained from analysis of the CellTiter Glo data.
Conjugates consisting of ECB147 cysteine variants, 83v2-cys, or Tencon-cys linked to a cytotoxic tubulin inhibitor from the auristatin family (FIG. 2) were tested for target-dependent cytotoxicity in cancer cells. […] Cell killing was assessed by measuring viability of the EGFR-overexpressing human tumor cell lines H1573 and A431 as well as the EGFR-negative tumor cell line MDA-MB-435 following exposure to the protein-cytotoxin conjugates using the procedure described in Example 4.
For orientation: ATP-based viability assays read luminescence as a measure of living cells.

B1: T68C (protein)
chain 1: MLPAPKCLVVSEVTEDSARLSWDDPWAFYESFLIQYQESEKVGEAIVLTVPGSERSYDLTGLKPGTEYTVSIYGVHNVYKDTNMRGLPLSAIFTT
chain 2: LPAPKCLVVSEVTEDSARLSWDDPWAFYESFLIQYQESEKVGEAIVLTVPGSERSYDLTGLKPGTEYTVSIYGVHNVYKDTNMRGLPLSAIFTT
modifications: EGFR binding FN3 domain; EGFR-binding FN3 domain
Regarding B1, the “First Scan Tm” value in series [1] (DSC 25-100° C., 1° C. per minute) is 72 °C. Further, in series [1] (second identical scan), the “Second Scan Tm” value was found to be 72 °C. In the series with EGFR (10 nM), the “EGFR binding relative to P54AR4-83v2 parent, 10 nM variant in assay” value turned out to be 0.83. The “EGFR binding relative to P54AR4-83v2 parent, 100 nM variant in assay” value with EGFR (100 nM) came out at 1.04. In addition, the “EGFR binding relative to P54AR4-83v2 parent, 500 nM variant in assay” value with EGFR (500 nM) worked out at 0.95. Also, the Percent monomer in series [2] was found to be 100%.

B2: 83v2cy5-mal-PEG4-VC-MMAE (conjugate)
chain: MLPAPKNLVVSEVTEDSARLSWDDPWAFYESFLIQYQESEKVGEAIVLTVPGSERSYDLTGLKPGTEYTVSIYGVHNVYKDTNMRGLPLSAIFTTGGHHHHHHC
In turn, B2 displayed an IC50 in the series on MDA-MB-435 cells of 512 nM.

B3: 83v2cy5-mal-PEG4-VK-MMAE (conjugate)
chain: B2 chain
In the case of B3, it took 62 nM to reach half-maximal inhibition in the series with MDA-MB-435 cells (IC50).

As a reminder, the IC50 is the concentration that gives 50% inhibition. High values mean weaker potency in that assay, low ones greater potency in that assay.
